The record followed here is patent publication US20180333482A1 (LOYOLA UNIVERSITY OF CHICAGO, published 2018).

This data set deals with the molecule itself. As to the kind of experiment: dynamic light scattering, self-association.

B1: recombinant wild-type MHV nsp15 protein, SUMO-fusion protein purified from E. coli (enzyme)
chain: SLENVVYNLVNAGHFDGRAGELPCAVIGEKVIAKIQNEDVVVFKNNTPFPTNVAVELFAKRSIRPHPELKLFRNLNIDVCWSHVLWDYAKDSVFCSSTYKVCKYTDLQCIESLNVLFDGRDNGALEAFKKCRNGVYINTTKIKSLSMIKGPQRADLNGVVVEKVGDSDVEFWFAVRKDGDDVIFSRTGSLEPSHYRSPQGNPGGNRVGDLSGNEALARGTIFTQSRLLSSFTPRSEMEKDFMDLDDDVFIAKYSLQDYAFEHVVYGSFNQKIIGGLHLLIGLARRQQKSNLVIQEFVTYDSSIHSYFITDENSGSSKSVCTVIDLLLDDFVDIVKSLNLKCVSKVVNVNVDFKDFQFMLWCNEEKVMTFYPRLQ
notes: domain: nsp15; also called WT nsp15; WT MHV Nsp15; not shown: His-SUMO tag from the pET-His-SUMO vector
Take B1: the binding result is recorded as “binds”.
